{"source": "paper PMC12630144", "molecular_target": "WRKY50 (Arabidopsis thaliana, UniProt Q8VWQ5 1-173)", "sequence (Q8VWQ5 whole entry)": "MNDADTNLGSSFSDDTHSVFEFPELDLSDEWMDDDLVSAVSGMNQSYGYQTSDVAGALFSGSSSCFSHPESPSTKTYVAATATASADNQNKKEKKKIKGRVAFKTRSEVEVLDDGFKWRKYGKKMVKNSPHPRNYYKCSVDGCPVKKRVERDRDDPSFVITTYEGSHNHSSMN", "assay": "EMSA", "data": [{"binder": "WK-box consensus probe (dsDNA) DNA 1: ATCGTCTAGATCGATTTTTCCACACGATGCTAGTCGTCA DNA 2: TGACGACTAGCATCGTGTGGAAAAATCGATCTAGACGAT", "values": [{"measurement": "binding result", "result": "binds"}]}, {"binder": "WT-box consensus probe (dsDNA) DNA 1: ATCGTCTAGATCGAAAAAGTCAACCGATGCTAGTCGTCA DNA 2: TGACGACTAGCATCGGTTGACTTTTTCGATCTAGACGAT", "values": [{"measurement": "binding result", "result": "binds"}]}]}
